# Source: US20160185837A1 (Medimmune Limited, priority 2013, published 2016)
# B1: IP088: Fc fusion, IgG1-TM, SEQ ID NO:105; agonist peptide YSEGTFTSDYSKLLEEEAVRLFIEWLVKGP (SEQ ID NO:15) (protein)
# chain: YSEGTFTSDYSKLLEEEAVRLFIEWLVKGPAAAGGSGSTASSGSGSATGGGGAATHTCPPCPAPEF
# modifications: also: Fc fusion, IgG1-TM
# Columns and labels:
# [1] = PK by Activity
# Experimental: Table printed on a drawing sheet, FIG. 3D-F
# Circles: IV injection of 1 mg/kg, squares: subcutaneous injection of 1 mg/kg. Pharmacokinetic parameters Cmax, bioavailability (F %) and half-life T1/2 are compared in panel C.
# Circles: IV injection of 1 mg/kg, squares: subcutaneous injection of 1 mg/kg. Pharmacokinetic parameters Cmax, bioavailability (F %) and half life T112 are compared in panel F.
# First reader's note: Panel F of FIG. 3D-F; the pharmacokinetic parameters were derived from plasma levels measured by activity (sheet heading 'PK by Activity').
# [2] = Extended pharmacokinetics, serum ELISA for protein (Fc) detection; format: in vivo, CD male rats; conditions: 1 mg/kg subcutaneously or intravenously, serum out to 168 hours
# Experimental: More extended pharmacokinetic assays to determine protein stability and activity were performed as follows. CD male rats (n=3) were injected subcutaneously or intravenously with 1 mg/kg IP088 or GLP1a-Fc. Periodic serum samples were obtained out to 168 hours. The serum samples were subjected to ELISA for protein (Fc) detection by the following method. ELISA plates (Costar 3690) were coated with Mouse anti-human IgG (JCD-10) 1/500 in PBS (final concentration 1 μg/ml). […] was added to each well and the plates were incubated overnight at 4° C. Following washing with PBS-Tween (PBS-T), the plates were blocked with […] 1% BSA in PBS for 1 h at RT with gentle shaking. Following washing with PBS-T, standards, and dilutions of […] samples were added (50 μl/well), and the plate was incubated for 2 h at RT with gentle shaking. Following washing […] biotinylated mouse anti-human IgG (JCD-10) diluted 1/1000 in ELISA incubation buffer (final concentration 0.5 μg/ml) was added to each well and the plates were incubated for 1 h at RT with gentle shaking. Following washing […] of Streptavidin-HRP diluted 1/1000 in ELISA incubation buffer was added to each well, and the plates were incubated for 45 min at RT with gentle shaking. […]
# [3] = Preliminary pharmacokinetics in mouse, serum activity at hGLP-1r by cAMP assay; format: in vivo; conditions: 1 mg/kg subcutaneously, C57 Bl/6J mice, cAMP assay in HBSS/HEPES 0.1% BSA
# Experimental: Preliminary pharmacokinetics in mouse was examined as follows: C57 Bl/6J mice were injected with 1 mg/kg (subcutaneously) with either IP088 or GLP1a-Fc, and serum samples were taken over time (3 animals per time point). The serum samples were then measured for activity at the hGLP-1r by the cAMP assay in HBSS/HEPES 0.1% BSA, as described above.
# [4] = tested on: blood glucose; assay: Oral glucose tolerance test (OGTT) in mouse model; format: in vivo, C57 male mice
# Experimental: The effect of IP088 on glycemic control in a mouse model was carried out as follows. Twenty-one (21) male C57 male mice (11-12 weeks old) were purchased from Taconic, Denmark and acclimatized for 3 weeks before experimentation. Throughout the acclimatization period the animals are offered ad libitum chow and tap water. Mice were single housed one week prior to the study. On day 1 of the study animals were randomized into 4 groups based on body weight (n=5-6 per group), and were administered the following compounds subcutaneously four hours (IP088, IP040, and GLP1a-Fc) or two hours (liraglutide) prior to each oral glucose tolerance test:
# Group 6: Liraglutide (GLP-1 analog, Novo Nordisk) 0.2 mg/kg S.C.
# Group 7: GLP1a-Fc (GLP-1 agonist) 1 mg/kg S.C.
# Group 8: IP088 1 mg/kg S.C.
# Oral glucose tolerance tests (OGTT) were performed on days 0 and 2, both after a 4-hour fast. […] Blood glucose was measured from tail vein blood before glucose (at t=−240, −120 and 0 min, baseline) and after glucose administration at t=15, 30, 60 and 120 min. Blood samples (tail vein) were collected into […] heparinized glass capillary tubes and immediately suspended in buffer (0.5 ml of glucose/lactate system solution (EKF-diagnostics, Germany) and analyzed for glucose on the test day using a BIOSEN c-Line glucose meter (EKF-diagnostics, Germany) according to manufacturer's instructions.
molecule,measurement,setting,value
B1,Cmax,[1],98 nmol/L
same,F (%),[1],72%
same,t½,[1],24 h
same,"PK profile by Fc ELISA (Cmax, bioavailability, half-life), in words",[2],equivalent PK profiles
same,time for which serum activity at hGLP-1r is maintained in the nanomolar range in vivo,[3],at least 48 hours
same,"glycemic control in OGTT compared with GLP1a-Fc, in words","[4]; 1 mg/kg S.C. each, OGTT days 0 and 2",superior to GLP1a-Fc at glycemic control
same,"glucose lowering effect in OGTT, in words","[4]; 1 mg/kg S.C. four hours before OGTT, days 0 and 2, 2 g/kg oral glucose",excellent glucose lowering effects
